Our source for the Kd and EC50 values is US20250043019A1 (Janssen / Centocor, published 2025).

Assay [1] deals with T1, cynomolgus monkey CD79b antigen (cynomolgus monkey).
T1 construct: also called cyno CD79b; CD9W1.001
The assay is described as follows: SPR. In general terms: SPR reads the build-up and loss of mass on a sensor chip optically.

Assay [2] concerns the target T2, human CD20 on the cell surface (human, UniProt P11836 1-297).
T2 construct: whole, on cells; On B-lymphoma lines, primary B cells, K562 CD20 or HEK293 transfectants; also called MS4A1; B-lymphocyte antigen CD20
T2 sequence (looked up): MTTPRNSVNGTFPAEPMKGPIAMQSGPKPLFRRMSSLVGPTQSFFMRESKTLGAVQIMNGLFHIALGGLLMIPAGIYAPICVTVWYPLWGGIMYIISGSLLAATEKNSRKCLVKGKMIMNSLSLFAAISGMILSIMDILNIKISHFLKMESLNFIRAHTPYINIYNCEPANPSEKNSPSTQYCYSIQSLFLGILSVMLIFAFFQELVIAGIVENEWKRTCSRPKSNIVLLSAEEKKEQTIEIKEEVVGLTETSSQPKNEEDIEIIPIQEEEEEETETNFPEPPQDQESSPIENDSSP
The experiment in a line: cell-based binding on CARNAVAL cells.

Some results are limits rather than exact numbers.

B1: C923B38 CD79bxCD20xCD3 trispecific antibody (other)
heavy: QVQLQESGPGLVKPSETLSLTCSVSGASISSFYWSWIRQPADEGLEWIGRISPSGKTNYIPSLKSRIIMSLDASKNQFSLRLNSVTAADTAMYYCARGEYSGTYSYSFDVWGQGTMVTVSSASTKGPSVFPLAPSSKSTSGGTAALGCLVKDYFPEPVTVSWNSGALTSGVHTFPAVLQSSGLYSLSSVVTVPSSSLGTQTYICNVNHKPSNTKVDKKVEPKSCDKTHTCPPCPAPEAAGGPSVFLFPPKPKDTLMISRTPEVTCVVVSVSHEDPEVKFNWYVDGVEVHNAKTKPREEQYNSTYRVVSVLTVLHQDWLNGKEYKCKVSNKALPAPIEKTISKAKGQPREPQVYTLPPSREEMTKNQVSLSCAVKGFYPSDIAVEWESNGQPENNYKTTPPVLDSDGSFFLVSKLTVDKSRWQQGNVFSCSVMHEALHNRFTQKSLSLSPGK
light: DIVMTQSPLSLSVTPGEPASISCRSSESLLDSEDGNTYLDWFLQKPGQSPQLLIYTLSYRASGVPDRFSGSGSDTDFTLHISSLEAEDVGLYYCMQRMEFPLTFGQGTKVEIKRTVAAPSVFIFPPSDEQLKSGTASVVCLLNNFYPREAKVQWKVDNALQSGNSQESVTEQDSKDSTYSLSSTLTLSKADYEKHKVYACEVTHQGLSSPVTKSFNRGEC
chain: EIVLTQSPATLSASPGERVTLSCSASSSVSYMNWYQQKPGQAPRRWIYDSSKLASGVPARFSGSGSGRDYTLTISSLEPEDFAVYYCQQWSRNPPTFGGGTKVEIKGGSEGKSSGSGSESKSTGGSQVQLVQSGAEVKKPGSSVKVSCKASGYTFTRSTMHWVKQAPGQGLEWIGYINPSSAYTNYNQKFQGRVTLTADKSTSTAYMELSSLRSEDTAVYYCASPQVHYDYAGFPYWGQGTLVTVSSEPKSSDKTHTCPPCPAPEAAGGPSVFLFPPKPKDTLMISRTPEVTCVVVSVSHEDPEVKFNWYVDGVEVHNAKTKPREEQYNSTYRVVSVLTVLHQDWLNGKEYKCKVSNKALPAPIEKTISKAKGQPREPQVYTLPPSREEMTKNQVSLWCLVKGFYPSDIAVEWESNGQPENNYKTTPPVLDSDGSFFLYSKLTVDKSRWQQGNVFSCSVMHEALHNHYTQKSLSLSPGKGGSEGKSSGSGSESKSTGGSAIQLTQSPSSLSASVGDRVTITCRASSSVSYIHWFQQKPGKAPKPLIYATSNLASGVPSRFSGSGSGTDFTLTISSLQPEDFATYYCQQWTSNPPTFGQGTKLEIKGGSEGKSSGSGSESKSTGGSQVQLVQSGAEVKKPGSSVKVSCKASGYTFTSYNMHWVRQAPGQGLEWMGAIYPGNGDTSYAQKFQGRVTITADKSTSTAYMELSSLRSEDTAVYYCARSTYYGGDWYFNVWGQGTLVTVSS
notes: Trispecific IgG1: CD79b Fab arm (HC1/LC) plus one chain CD3 scFv-Fc-CD20 scFv; also called CD9B374 / CD3B2030-N106A-scFv-LH-C20B22
By Kd is commonly meant the constant that tells how readily two partners part at equilibrium. Regarding B1, the Kd in assay [1] is > 3000 nM.

B2: CD20 binding arm of C923B169 tested as scFv (scFv)
chain: EIVLTQSPATLSLSPGERATLSCRASLSVSSMHWYQQKPGQAPRLLIYATSNLASGIPARFSGSGSGTDFTLTISSLEPEDFAVYYCQQWIFNPPTFGGGTKVEIKGGSEGKSSGSGSESKSTGGSQVQLVQSGAEVKKPGSSVKVSCKASGYTFSSYNMHWVRQAPGQGLEWMGAIYPGAGDTSYAQKFQGRVTITADESTSTAYMELSSLRSEDTAVYYCARSNYYGSSGWYFDVWGKGTTVTVSS
In general, EC50 refers to the concentration at which the effect is half-maximal. Turning to B2, the EC50 in assay [2] worked out at 16 nM.
